These results are taken from PMC4288178, “CRISPR RNA binding and DNA target recognition by purified Cascade complexes from Escherichia coli”.

Series [1] concerns the target T1, Cascade- (crRNA-free Cse1-Cse2-Cas7-Cas5-Cas6e) (Escherichia coli (K12; expressed in …, UniProt Q46901;P76632;Q46899;Q46898;Q46897 1-502;1-160;1-363;1-224;1-199).
T1 sequence 1: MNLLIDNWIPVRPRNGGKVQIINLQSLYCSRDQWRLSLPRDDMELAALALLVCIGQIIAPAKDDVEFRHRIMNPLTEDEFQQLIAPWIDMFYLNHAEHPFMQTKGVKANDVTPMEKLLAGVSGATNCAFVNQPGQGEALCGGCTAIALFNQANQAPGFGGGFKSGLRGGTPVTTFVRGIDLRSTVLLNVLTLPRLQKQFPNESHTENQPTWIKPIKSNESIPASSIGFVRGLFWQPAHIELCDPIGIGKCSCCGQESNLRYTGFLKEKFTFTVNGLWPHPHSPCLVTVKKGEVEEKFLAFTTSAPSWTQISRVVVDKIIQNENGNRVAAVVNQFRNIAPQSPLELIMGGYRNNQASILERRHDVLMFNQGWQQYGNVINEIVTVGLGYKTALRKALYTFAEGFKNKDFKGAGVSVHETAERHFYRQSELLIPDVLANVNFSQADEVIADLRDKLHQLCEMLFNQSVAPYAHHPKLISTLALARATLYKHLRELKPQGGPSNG
T1 sequence 2: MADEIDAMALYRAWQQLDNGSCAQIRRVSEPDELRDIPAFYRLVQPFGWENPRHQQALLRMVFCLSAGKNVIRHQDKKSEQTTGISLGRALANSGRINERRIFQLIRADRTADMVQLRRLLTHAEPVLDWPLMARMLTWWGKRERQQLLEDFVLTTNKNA
T1 sequence 3: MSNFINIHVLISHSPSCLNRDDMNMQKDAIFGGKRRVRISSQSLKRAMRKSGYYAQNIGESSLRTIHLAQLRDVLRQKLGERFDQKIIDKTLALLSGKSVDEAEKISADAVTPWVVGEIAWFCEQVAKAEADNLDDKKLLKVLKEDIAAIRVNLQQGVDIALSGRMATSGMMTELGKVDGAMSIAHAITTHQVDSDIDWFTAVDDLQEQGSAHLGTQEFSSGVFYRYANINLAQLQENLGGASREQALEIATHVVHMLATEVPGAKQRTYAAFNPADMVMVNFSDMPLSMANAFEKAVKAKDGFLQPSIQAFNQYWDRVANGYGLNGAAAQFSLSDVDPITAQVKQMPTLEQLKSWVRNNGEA
T1 sequence 4: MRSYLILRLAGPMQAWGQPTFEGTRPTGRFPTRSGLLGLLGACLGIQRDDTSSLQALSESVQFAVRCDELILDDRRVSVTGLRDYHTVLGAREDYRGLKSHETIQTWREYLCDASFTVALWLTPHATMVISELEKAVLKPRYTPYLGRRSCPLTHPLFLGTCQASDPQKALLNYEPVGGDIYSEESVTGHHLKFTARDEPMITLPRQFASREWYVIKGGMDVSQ
T1 sequence 5: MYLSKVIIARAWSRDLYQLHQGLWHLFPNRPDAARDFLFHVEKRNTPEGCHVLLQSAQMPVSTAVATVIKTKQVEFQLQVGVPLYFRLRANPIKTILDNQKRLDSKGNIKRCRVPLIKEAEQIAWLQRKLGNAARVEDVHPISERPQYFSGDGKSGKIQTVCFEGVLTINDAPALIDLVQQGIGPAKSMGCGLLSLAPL
Kind of series: EMSA; loaded with crRNA MS2; EMSA: 20 mM Tris-HCl pH 8, 20 mM NaCl, 10 nM 32P probe, 30 min at 30 or 37 C, 6% native PAGE; loading 10 min at 30 C with crRNA (0.5 uM in Fig 3). Kd values are printed only in Fig 5A (not in the material). Particulars: protein: recombinant; tags: N-terminal 6His on Cse1 (CasA); copies: 1;2;6;1;1; label: DNA 5'-32P; guide + blunt duplex. For orientation: In EMSA bound probe runs differently from free probe, usually more slowly.

The target of series [2] is T1, Cascade- (crRNA-free …). Kind of series: EMSA; EMSA: 20 mM Tris-HCl pH 8, 20 mM NaCl, 10 nM 32P probe, 30 min at 30 or 37 C, 6% native PAGE; loading 10 min at 30 C with crRNA (0.5 uM in Fig 3). Kd values are printed only in Fig 5A (not in the material). Conditions: protein: recombinant; tags: N-terminal 6His on Cse1 (CasA); copies: 1;2;6;1;1; label: 5'-32P; 3' handle hairpin.

Series [3] has as its target T2, Cascade+ (Cascade co-expressed with g8 crRNA) (Escherichia coli (K12; expressed in …, UniProt Q46901;P76632;Q46899;Q46898;Q46897 1-502;1-160;1-363;1-224;1-199).
T2 sequence 1: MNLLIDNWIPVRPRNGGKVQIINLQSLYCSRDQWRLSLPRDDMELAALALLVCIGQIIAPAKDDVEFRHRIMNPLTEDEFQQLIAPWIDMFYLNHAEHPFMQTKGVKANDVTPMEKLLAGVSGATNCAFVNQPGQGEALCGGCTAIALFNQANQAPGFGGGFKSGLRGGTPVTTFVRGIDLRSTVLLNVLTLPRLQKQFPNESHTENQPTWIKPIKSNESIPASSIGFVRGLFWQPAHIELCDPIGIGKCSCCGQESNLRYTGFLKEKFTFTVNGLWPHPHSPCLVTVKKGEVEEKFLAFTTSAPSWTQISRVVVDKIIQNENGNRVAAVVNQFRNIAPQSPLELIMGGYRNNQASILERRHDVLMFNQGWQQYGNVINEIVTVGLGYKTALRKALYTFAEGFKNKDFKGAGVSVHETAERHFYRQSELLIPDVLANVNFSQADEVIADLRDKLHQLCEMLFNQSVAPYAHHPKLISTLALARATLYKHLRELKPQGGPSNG
T2 sequence 2: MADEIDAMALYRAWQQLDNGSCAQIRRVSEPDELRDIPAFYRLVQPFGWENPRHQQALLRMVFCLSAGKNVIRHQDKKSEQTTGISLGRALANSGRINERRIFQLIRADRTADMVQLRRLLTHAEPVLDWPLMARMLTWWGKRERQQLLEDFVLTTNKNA
T2 sequence 3: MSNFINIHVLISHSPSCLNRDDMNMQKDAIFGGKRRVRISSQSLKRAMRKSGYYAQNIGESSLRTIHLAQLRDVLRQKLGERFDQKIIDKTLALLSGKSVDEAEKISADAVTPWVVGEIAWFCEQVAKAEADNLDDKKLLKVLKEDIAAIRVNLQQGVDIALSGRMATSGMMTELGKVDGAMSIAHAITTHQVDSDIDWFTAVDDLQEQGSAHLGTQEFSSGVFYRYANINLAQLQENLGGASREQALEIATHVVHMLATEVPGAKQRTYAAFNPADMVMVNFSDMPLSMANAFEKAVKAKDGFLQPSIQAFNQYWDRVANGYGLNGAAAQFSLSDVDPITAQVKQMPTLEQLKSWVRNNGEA
T2 sequence 4: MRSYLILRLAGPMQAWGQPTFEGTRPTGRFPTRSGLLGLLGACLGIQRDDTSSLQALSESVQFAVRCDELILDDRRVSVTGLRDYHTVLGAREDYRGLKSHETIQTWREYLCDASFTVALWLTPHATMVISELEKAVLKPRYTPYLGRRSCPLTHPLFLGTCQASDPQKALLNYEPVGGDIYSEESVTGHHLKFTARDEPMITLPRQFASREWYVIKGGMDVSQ
T2 sequence 5: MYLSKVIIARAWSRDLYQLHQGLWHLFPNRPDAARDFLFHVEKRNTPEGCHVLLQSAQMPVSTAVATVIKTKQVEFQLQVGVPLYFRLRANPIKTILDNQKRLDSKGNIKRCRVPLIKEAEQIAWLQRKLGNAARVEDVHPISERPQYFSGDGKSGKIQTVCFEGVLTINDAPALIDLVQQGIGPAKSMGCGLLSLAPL
Kind of series: EMSA; co-expressed g8 crRNA; EMSA: 20 mM Tris-HCl pH 8, 20 mM NaCl, 10 nM 32P probe, 30 min at 30 or 37 C, 6% native PAGE; loading 10 min at 30 C with crRNA (0.5 uM in Fig 3). Kd values are printed only in Fig 5A (not in the material). Conditions: protein: recombinant; tags: N-terminal 6His on Cse1 (CasA); copies: 1;2;6;1;1; label: 5'-32P; 3' handle hairpin.

In series [4] the target is T2, Cascade+ (Cascade co-expressed with g8 …). As to the kind of experiment: EMSA; co-expressed crRNA; EMSA: 20 mM Tris-HCl pH 8, 20 mM NaCl, 10 nM 32P probe, 30 min at 30 or 37 C, 6% native PAGE; loading 10 min at 30 C with crRNA (0.5 uM in Fig 3). Kd values are printed only in Fig 5A (not in the material). Particulars: protein: recombinant; tags: N-terminal 6His on Cse1 (CasA); copies: 1;2;6;1;1; label: DNA 5'-32P; guide + blunt duplex.

Series [5] deals with T1, Cascade- (crRNA-free …). As to the kind of experiment: EMSA; loaded with crRNA1; EMSA: 20 mM Tris-HCl pH 8, 20 mM NaCl, 10 nM 32P probe, 30 min at 30 or 37 C, 6% native PAGE; loading 10 min at 30 C with crRNA (0.5 uM in Fig 3). Kd values are printed only in Fig 5A (not in the material). Particulars: protein: recombinant; tags: N-terminal 6His on Cse1 (CasA); copies: 1;2;6;1;1; label: DNA 5'-32P; guide + blunt duplex.

B1: crRNA MS2 + MS2 dsDNA (mixed)
RNA: AUAAACCGGCACCGACCCCUUUCUGGAGGUACAUAUUCAUGAGUUCCCCGCGCCAGCGGGG
DNA 1: TGAGCCGGCGTCTGATAAAGGCACCGACCCCTTTCTGGAGGTACATATTCATATCAGGCTCCTTACAGGCAG
DNA 2: CTGCCTGTAAGGAGCCTGATATGAATATGTACCTCCAGAAAGGGGTCGGTGCCTTTATCAGACGCCGGCTCA
In the case of B1, the binding result in series [1] is “binds”.

B2: crRNA1 (-8/+21) (structured_RNA)
RNA: AUAAACCGCUGUCUUUCGCUGCUGAGGGUGACGAUCCGCCGAGUUCCCCGCGCCAGCGGGG
modifications: 2',3'-cyclic phosphate at 3' end
In the case of B2, the binding result in series [2] and in series [3] was “binds” each time.

B3: g8 crRNA1 + g8 dsDNA (mixed)
RNA: AUAAACCGCUGUCUUUCGCUGCUGAGGGUGACGAUCCGCCGAGUUCCCCGCGCCAGCGGGG
DNA 1: CAGGGAGTTAAAGGCCGCTTTTGCGGGATCGTCACCCTCAGCAGCGAAAGACAGCATCGGAACGAGGGTAGCAACGGCT
DNA 2: AGCCGTTGCTACCCTCGTTCCGATGCTGTCTTTCGCTGCTGAGGGTGACGATCCCGCAAAAGCGGCCTTTAACTCCCTG
modifications: 2',3'-cyclic phosphate on crRNA
On to B3, for which the binding result in series [4] and in series [5] was “binds” each time.
